Legend:
[1] = molecular target: GST-Tat 1-101 (HIV-1 Tat protein) (HIV-1); test: ELISA; competition: GST-Tat 1-101 or GST-Tat 1-45 (0.1 μM) pre-incubated 1 h at 37°C with increasing amounts of soluble rhMD2, rhTLR4-MD2, rhTLR4 or rhCD14, then 2 h on coated rhMD2 (or TLR4-MD2); OD 450 nm; K0.5 taken as an apparent dissociation constant
recombinant human TLR4 = molecular target: T1, recombinant human TLR4 (human, UniProt O00206 24-631); test: ELISA; rh TLR4 coated at 1 μg/ml; MD2 at 1-10 μg/ml in solution; detected with anti-MD2 monoclonal antibodies; conditions: both partners purified
T1 construct: human Toll-like receptor 4 (TLR4), recombinant, used coated or soluble without MD2; also called rhTLR4; rh TLR4
T1 sequence (O00206 24-631): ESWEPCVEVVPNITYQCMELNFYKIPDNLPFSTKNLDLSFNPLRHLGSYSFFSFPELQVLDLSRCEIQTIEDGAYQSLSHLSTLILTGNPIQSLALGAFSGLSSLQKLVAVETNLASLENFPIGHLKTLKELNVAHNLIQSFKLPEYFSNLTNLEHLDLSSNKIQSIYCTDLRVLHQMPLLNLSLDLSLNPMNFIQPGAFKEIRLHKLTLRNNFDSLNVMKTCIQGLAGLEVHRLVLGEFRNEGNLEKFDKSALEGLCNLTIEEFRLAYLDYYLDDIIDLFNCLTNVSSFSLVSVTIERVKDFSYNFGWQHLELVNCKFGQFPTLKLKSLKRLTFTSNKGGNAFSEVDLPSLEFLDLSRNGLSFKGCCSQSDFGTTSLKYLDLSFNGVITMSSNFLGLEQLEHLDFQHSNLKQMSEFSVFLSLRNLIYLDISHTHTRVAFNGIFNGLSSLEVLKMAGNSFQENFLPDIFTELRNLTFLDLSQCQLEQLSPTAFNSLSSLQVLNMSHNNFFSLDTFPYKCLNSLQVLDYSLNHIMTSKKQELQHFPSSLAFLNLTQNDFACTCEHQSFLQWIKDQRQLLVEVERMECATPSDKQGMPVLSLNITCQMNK

GST-Tat 1-101 (HIV-1 Tat protein) (HIV-1), sequence (P04614 whole entry): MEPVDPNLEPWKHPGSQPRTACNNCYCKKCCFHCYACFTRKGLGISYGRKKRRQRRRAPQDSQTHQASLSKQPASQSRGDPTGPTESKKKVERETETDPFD

Question: Which IC50 [1] does the source give for “recombinant human TLR4-MD2 complex (from UniProt O00206 24-631; Q9Y6Y9 19-160)” here?
Answer: The IC50 was 1 nM.

B1: recombinant human MD2 (natural protein, UniProt Q9Y6Y9 19-160, looked up)
chain: QKQYWVCNSSDASISYTYCDKMQYPISINVNPCIELKRSKGLLHIFYIPRRDLKQLYFNLYITVNTMNLPKRKEVICRGSDDDYSFCRALKGETVNTTISFSFKGIKFSKGKYKCVVEAISGSPEEMLFCLEFVILHQPNSN
notes: human MD2 (lymphocyte antigen 96), soluble recombinant; No catalogue number printed; also called rhMD2; hMD2; source: bought: R&D Systems
Question: What does the source list for B1?
Answer: binding result (recombinant human TLR4): binds; IC50 [1]: 4 nM; percent inhibition of Tat binding to coated MD2 with soluble MD2 at 1 μg/ml [1]: > 95%

Source: paper PMC4231456, “HIV-1 Tat protein binds to TLR4-MD2 and signals to induce TNF-α and IL-10” (Retrovirology, 2013)
